Drawing on patent US7015022B2, “Mammalian catalase-dependent oxidation processes and methods for stimulating oxidative activities” (University of Medicine & Dentistry of New Jersey, priority 2002, dated 2006), this text covers Km and Vmax for one protein.

Substrate in the data set: CC(=O)N1c2ccc(O)cc2Oc2cc(O)ccc21
The experiment in a line: Catalase-dependent oxidation of AMPLEX-RED to resorufin in the absence of hydrogen peroxide (Lineweaver-Burke enzyme kinetics). The data set is classed as biochemical, bovine. Conditions: other: Lineweaver-Burke analysis, catalase 1 mg/ml, 50 mM phosphate buffer pH 7.4, room temperature, no hydrogen peroxide.

Protocol: Reactions were carried out in buffer consisting of 50 mM phosphate buffer, pH 7.4 and 1.0 mg/ml of the catalase at room temperature (22° C.) in a reaction volume of 0.1 ml. […] Standard reaction mixtures contain 20 nmoles of the substrate. Detection of the fluorescent product resorufin was measured using an HTS 7000 Plus Bio Assay Reader (Perkin Elmer, Beaconsfield, Buckinghamsire, UK) using a 540 nm excitation filter and a 595 nm emission filter.

B1: mammalian catalase (Bos taurus) (protein)
chain: ADNRDPASDQMKHWKEQRAAQKPDVLTTGGGNPVGDKLNSLTVGPRGPLLVQDVVFTDEMAHFDRERIPERVVHAKGAGAFGYFEVTHDITRYSKAKVFEHIGKRTPIAVRFSTVAGESGSADTVRDPRGFAVKFYTEDGNWDLVGNNTPIFFIRDALLFPSFIHSQKRNPQTHLKDPDMVWDFWSLRPESLHQVSFLFSDRGIPDGHRHMNGYGSHTFKLVNANGEAVYCKFHYKTDQGIKNLSVEDAARLAHEDPDYGLRDLFNAIATGNYPSWTLYIQVMTFSEAEIFPFNPFDLTKVWPHGDYPLIPVGKLVLNRNPVNYFAEVEQLAFDPSNMPPGIEPSPDKMLQGRLFAYPDTHRHRLGPNYLQIPVNCPYRARVANYQRDGPMCMMDNQGGAPNYYPNSFSAPEHQPSALEHRTHFSGDVQRFNSANDDNVTQVRTFYLKVLNEEQRKRLCENIAGHLKDAQLFIQKKAVKNFSDVHPEYGSRIQALLDKYNEEKPKNAVHTYVQHGSHLSAREKANL
notes: purified catalases obtained from a variety of sources including enzyme from mouse and bovine liver; purchased Sigma Chemical Co., St. Louis, Mo; host or cells: liver tissue (mouse and bovine named)
Usually Km stands for the concentration of substrate that gives half-maximal velocity. A word on the Vmax: it is the top rate of the reaction or transport when substrate is in excess. In the case of B1, the Km stood at 244 µM and the Vmax worked out at 4.74e-05 M/s.
